Consider three substances from doi:10.1101/2021.07.28.453719.

Common to all, as to assay: ITC
Background: Isothermal titration calorimetry measures the heat released or taken up as one component is titrated into another.

Experiment [1] concerns the target second bromodomain (BD2) of BRD4 (human).
For experiment [2], the target named is BRD2-L108AzF mutant (photo-responsive bromodomain analogue) (human).
For experiment [3], the target named is BRD3-L68AzF mutant (photo-responsive bromodomain analogue) (human) (UniProt Q15059).
For experiment [4], the target named is BRDT-L61AzF mutant (photo-responsive bromodomain analogue) (human).
Experiment [5] concerns the target first bromodomain (BD1) of BRD2, wild type (human).
In experiment [6] the target is first bromodomain (BD1) of BRDT, wild type (human).

Broadly, the Kd is the equilibrium constant for the complex coming apart. In experiment [1], “ILF3 variant peptide AKacGALLKacG (aa 99-106) 15 carrying L102A” returned a Kd of 57 µM.
Still for that read-out and setting: for “diacetylated ILF3 peptide 10 (AKacGLLLKacG)” the value was 33 µM.
“tetra-acetylated histone H4 peptide (H4Kac4) 2 (from UniProt P62805 2-22)”: the Kd in experiment [2] came out at 93.5 µM; in experiment [3], 14.2 µM; in experiment [4], 13.5 µM; in experiment [5] it was 27.8 µM; in experiment [6], 13.7 µM.
